Source: article PMC6205234

Columns and labels:
Test in all cases: fluorescence anisotropy
PABP1 (WT) [1] = target: T1, PABP1 (WT) (human, UniProt P11940 1-636)
scPABP1 = scPABP1 (human, UniProt P11940 1-636, C43S;C128S;C132S)
PABP1 (WT) [2] = target: T1, PABP1 (WT); remark: listed apart in the source

T1 sequence (P11940 whole entry): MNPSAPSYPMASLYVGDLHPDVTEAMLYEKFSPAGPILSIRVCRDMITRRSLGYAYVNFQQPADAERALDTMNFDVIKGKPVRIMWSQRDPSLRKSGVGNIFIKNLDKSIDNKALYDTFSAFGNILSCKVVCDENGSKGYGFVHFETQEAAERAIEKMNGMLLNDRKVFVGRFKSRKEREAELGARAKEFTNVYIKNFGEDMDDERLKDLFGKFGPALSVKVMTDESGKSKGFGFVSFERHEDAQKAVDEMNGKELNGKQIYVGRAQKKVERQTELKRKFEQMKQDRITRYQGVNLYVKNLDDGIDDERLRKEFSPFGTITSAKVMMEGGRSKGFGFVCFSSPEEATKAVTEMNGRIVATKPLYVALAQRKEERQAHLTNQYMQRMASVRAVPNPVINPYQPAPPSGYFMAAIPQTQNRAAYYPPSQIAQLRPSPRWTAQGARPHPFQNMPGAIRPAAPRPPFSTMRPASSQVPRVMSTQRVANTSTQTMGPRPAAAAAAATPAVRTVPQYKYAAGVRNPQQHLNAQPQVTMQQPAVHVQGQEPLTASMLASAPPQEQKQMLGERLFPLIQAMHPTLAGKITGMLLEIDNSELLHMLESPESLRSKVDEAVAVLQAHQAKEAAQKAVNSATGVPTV
Chain of scPABP1 (P11940 whole entry C43S/C128S/C132S): as the sequence (P11940 whole entry) above, with C43S, C128S, C132S counted along it

Row | Binder | binding result (PABP1 (WT) [1]) | Kd (scPABP1) [nM] | Kd (PABP1 (WT) [2]) [nM]
1 | CCCCCCCCCCCCCCCCCU (ssRNA) [Poly (C)18] | no binding |  | 
2 | AAAAAAAAAAAAAAAAAU (ssRNA) [Poly (A)18] |  | 5.1 ± 0.6 | 2 ± 0.5
